Assay results from US20200332005A1.

Target: N-terminal of CD73
Test: plate binding assay, axis Binding activity (OD450) against Ab (µg/ml); panel Binding to N-terminal of CD73

- EC50 (read off the curve): 0.01 µg/mL
Substance: MEDI-9447 (Medimmune) (antibody)
